Data as given in patent publication US20230183322A1 (PEKING UNIVERSITY, published 2023).

Key:
[1] = molecular target: biotin-labeled SARS-COV-2 RBD domain (SARS-CoV-2, UniProt P0DTC2 319-541); test: SPR, Biacore T200, biotin-RBD on SA chip, antibody as analyte
[2] = molecular target: S protein of the novel coronavirus SARS-CoV-2 (SARS-CoV-2, UniProt P0DTC2 14-1273); test: cell-based or functional assay

| Binder | Kd [1] | IC50 for neutralizing SARS-CoV-2 pseudovirus (Huh-7 cells, luciferase) [2] |
| --- | --- | --- |
| ABU-390 (antibody, V domains shown) VH: EVQLVESGGGLVQPGGSLRLSCAASGFTFSSYDMHWVRQATGKGLEWVSVIGTAGDTYYPGSVKGRFTISRENAKNSLYLQMNSLRAGDTAVYYCARDRDNGSGSYLGWAFDIWGQGTMVTVSS VL: not shown | < 10 nM |  |
| ABU-384 (antibody, V domains shown) VH: EVQLVESGGGLVQPGGSLRLSCAASGFTVSSNYMSWVRQAPGKGLEWVSIIYSGGSTYYADSVKGRFTISRDNSKNTLYLQMNSLRAEDTAVYYCARDYAGRVWGQGTLVTVSS VL: DIQMTQSPSSLSASVGDRVTITCQASQDIRSYLNWYQQKPGKAPKLLIYDASNLETGVASRFSGSGSGTDFTFTISSLQPEDIATYYCQQYDNLPQTFGQGTKLEIK | < 20 nM |  |
| ABU-290 (antibody, V domains shown) VH: QVQLVQSGAEVKKPGASVKVSCKASGFTFGRHGITWVRQAPGQGLEWMGWISTYSGNTNYAQNLQGRVTMTTDTSTNTAYMELRSLFFDDTAVYYCAKAVSGWPIYFDAWGQGTLVTVSS VL: EIVMTQSPATLSVSPGERVTLSCRASQSINRNLAWYQQKPGQAPRLLVYDASTRAPGIPTRVSGSGSGTDFTLTISSLQSEDFAVYYCQQYNNWPPITFGQGTRLEIQ |  | < 0.1 µg/mL |
| ABU-291 (antibody, V domains shown) VH: QIQLVQSGAEVKKPGASVRVSCKASGFTFGRYGITWVRQVPGQGLEWMGWISTYSGNTNYAQNLQGRVTMTTDTSTNTAYMELRSLFFDDTAMYYCAKAVSGWPIYFDAWGQGTLVTVSS VL: EIVMTQSPATLSVSPGERVTLSCRASQSVNRNLAWYQQKPGQAPRLLVYDASTRAPGIPTRVRGSGSGTDFTLTISSLQSEDFAVYYCQQYNNWPPITFGQGTRLEIQ |  | < 0.5 µg/mL |
| ABU-322 (antibody, V domains shown) VH: EVQLVESGGGLIQPGGSLRLSCAASGVIVSRNYMNWVRQAPGKGLEWVSVIYSGGSTFYADSVKGRFTISRDNSKNTLYLQMNSLRAEDTAVYYCARELRGAFDIWGQGTMVTVSS VL: not shown |  | < 0.1 µg/mL |
| ABU-296 (antibody, V domains shown) VH: EVQLLESGGGVVQPGGSLRLSCAASGFTFTTYAMNWVRQAPGRGLEWVSAISDSGGSAYYADSVKGRFTISRDNSKNTLYLQMNSLRAEDTAVYYCAKTRGRGLYDYVWGSKDYWGQGTLVTVSS VL: not shown | < 1 nM | < 0.1 µg/mL |
| ABU-385 (antibody, V domains shown) VH: EVQLVESGGGLVQPGGSLRLSCAASGFTVSSNYMSWVRQAPGKGLEWVSVIYSGGSTYYADSVKGRFTISRDNSKNTLYLQMNSLRAEDTAVYYCARELSYSSSSGVGPKYWGQGTLVTVSS VL: not shown | < 20 nM |  |
| ABU-348 (antibody, V domains shown) VH: QVQLVESGGGVVQPGKSLRLSCAASGFTFSSYGMHWVRQAPGKGLEWVAVISNYGSNKYHADSVKGRITISRDNSKNTLYLQMNSLRAEDTAVYYCAKGGYYDILTGYFPFDYWGQGTLVTVSS VL: QSALTQPRSVSGSPGQSVTISCTGTSSDVGGYNYVSWYQQYPGKAPKLMIYEVSKRPSGVPDRFSGSKSGNTASLTISGLQAEDEADYYCCSYAGSYTWVFGTGTKVTVL | < 10 nM |  |
| ABU-190 (antibody, V domains shown) VH: EVQLVESGGGLIQPGGSLRLSCAASGITVSSNYMSWVRQAPGKGLEWVSVIYSGGSTDYADSVKGRFTISRDKSKNTLYLQMNSLRAEDTAVYYCARDLGEAGGMDVWGQGTTVTVSS VL: AIQLTQSPSSLSASVGDRVTITCRASQGISSYLAWYQQKPGKAPKLLIYAASTLQSGVPSRFSGSGSGTDFTLTISSLQPEDFATYYCQQLNSYPPAFGGGTKVEIK |  | < 0.1 µg/mL |
| ABU-343 (antibody, V domains shown) VH: QVQLVQSGAEVKKPGASVKVSCKASGYTFTNYYMHWMRQAPGQGLEWMGIINPSGGSTSYAHQFQGRVTMTRDTSTSTVYMEMSSLRSEDTAVYFCVVGIGYCSSPSCPPLRWFDYWGQGTLVTVSS VL: AIQLTQSPSSLSASVGDRVTITCRASQGISSALAWYQQKPGKAPKVLIYDASGLQSGVPSRFSGGGSGTDFTLTISSLQPEDFATYYCQQFNDYPLTFGGGTKVEIK | < 20 nM |  |
| ABU-346 (antibody, V domains shown) VH: EAQLLESGGGLVQPGGSLRLSCAVSGFTVSSYDMSWVRQAPGKRLEWVSFISARGSVTYYADSVRGRFTISRDNFKNTLYVEMNNLRVEDTAVYYCAKGHWSTWGQGTLVTVSS VL: DVVLTQSPLSLPVTLGQPASISCRSSHSLVYSDGYTHLHWIQERPGQSPRRLIYSVSHRDSGVPDRFSGSGSATDFTLQISRVEAEDVGVYYCMQGSHWPWTFGQGTKVEIK | < 10 nM |  |
| ABU-383 (antibody, V domains shown) VH: EVQLVESGGGLVQPGGSLRLSCAASGFTVSSNYMSWVRQAPGKGLEWVSLIYSGGSTYYADSVKGRFTISRDNSKNTLYLQMNSLRAEDTAVYYCARDRPAAAIRFGQGTLVTVSS VL: not shown | < 20 nM |  |
| ABU-308 (antibody, V domains shown) VH: QVQLVQSGAEVKKPGSSVKVSCKASGGTFSSYAISWVRQAPGQGLEWMGGIIPIFGTANYAHKFQGRVTITADESTSTAYMELSSLRSEDTAVYYCATRRGYSGYGAAYYFDYWGQGTLVTVSS VL: QSVLTQPPSVSGAPGQRVTISCTGSSSNIGAGYDVHWYQQLPGTAPKLLIYGNSNRPSGVPDRFSGSKSGTSASLAITGLQAEDEADYYCQSYDSSLSGSLFGGGTKLTVL |  | < 0.5 µg/mL |
| ABU-344 (antibody, V domains shown) VH: QVQLVQSGAEVKKPGSSVKVSCKASGGTFSSYTISWVRQAPGQGLEWMGRIIPILGIANYAQKFQGRVTITADKSTSTAYMELSSLRSEDTAVYYCARERGYSGSGSLYYFDYWGQGTLVTVSS VL: QSVLTQPPSVSGAPGQRVTISCTGSNSNIGAGYDVHWYQQLPGTAPKLLIYVNTNRPSGVPDRFSGSKSGTSASLAITGLQAEDEAHYYCQSYDSSLSGSVFGGGTKLTVL |  | < 1 µg/mL |
| ABU-174 (antibody, V domains shown) VH: QVQLQQWGAGLLKPSETLSLTCAVYGGSFSDYYWNWIRRPPGKGLEWIGEITHSGSTNYNPSLKSRVTISVDTSKNQFSLKLSSVTAADTAVYYCARGQGYGRVLLWFGEWGQGTLVTVSS VL: EIVLTQSPATLSLSPGERATLSCRASQSVSTYLAWYQQKPGQAPRLLIYDASNRATGIPARFSGSGSGTDFTLTISSLEPEDFAVYYCQQRSNWITFGQGTRLEIK |  | < 0.1 µg/mL |
| ABU-208 (antibody, V domains shown) VH: QVQLVESGGGVVQPGRSLRLSCVASGFTFSNYDMHWVRQAPGKGLEWVTVISSDGNNRRYADSVKGRFTISRDNSKNMLYLQMNSLKAEDTAVYYCARDEVIAVATGEGMDVWGQGTTVTVSP VL: EIVMTQSPAILSVSPGERATLSCRASQSVTRNLAWYQQKPGQAPRLLIYGASTRATNIPARFSGSGFGTEFTLIISSLQSEDFAVYYCQQYSNWPLYTFGQGTKLEIK | < 1 nM | < 0.5 µg/mL |
| ABU-257 (antibody, V domains shown) VH: EVQLVESGGGLIQPGGSLRLSCAASGFTVSSNYMSWVRQAPGKGLEWVSVIYSGGSTYYADSVKGRFTISRDNSKNTLYLQMNSLRAEDTAVYYCARVTRAGAAGDGGAFDIWGQGTMVTVSS VL: QSALTQPASVSGSPGQSITISCTGTSSDVGSYNLVSWYQQHPGKAPKLMIYEVSKRPSGVSNRFSGSKSGNTASLTISGLQAEDEADYYCCSYAGSSLWVFGGGTKLTVL | < 10 nM | < 0.5 µg/mL |
